Assay results published in patent US20220332804A1 (CSL INNOVATION, published 2022).

What was measured:
Test in all cases: SPR, KD relative to WT C2;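 note: biacore SPR at 37 °C, anti-C2 mAbs captured via immobilised goat anti-human IgG, C2 alanine or serine surface mutants as analytes, 1:1 model fitted, double-referenced sensograms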
[1] = target: T1, human C2 I438A (human, UniProt P06681 21-752)
T1 sequence: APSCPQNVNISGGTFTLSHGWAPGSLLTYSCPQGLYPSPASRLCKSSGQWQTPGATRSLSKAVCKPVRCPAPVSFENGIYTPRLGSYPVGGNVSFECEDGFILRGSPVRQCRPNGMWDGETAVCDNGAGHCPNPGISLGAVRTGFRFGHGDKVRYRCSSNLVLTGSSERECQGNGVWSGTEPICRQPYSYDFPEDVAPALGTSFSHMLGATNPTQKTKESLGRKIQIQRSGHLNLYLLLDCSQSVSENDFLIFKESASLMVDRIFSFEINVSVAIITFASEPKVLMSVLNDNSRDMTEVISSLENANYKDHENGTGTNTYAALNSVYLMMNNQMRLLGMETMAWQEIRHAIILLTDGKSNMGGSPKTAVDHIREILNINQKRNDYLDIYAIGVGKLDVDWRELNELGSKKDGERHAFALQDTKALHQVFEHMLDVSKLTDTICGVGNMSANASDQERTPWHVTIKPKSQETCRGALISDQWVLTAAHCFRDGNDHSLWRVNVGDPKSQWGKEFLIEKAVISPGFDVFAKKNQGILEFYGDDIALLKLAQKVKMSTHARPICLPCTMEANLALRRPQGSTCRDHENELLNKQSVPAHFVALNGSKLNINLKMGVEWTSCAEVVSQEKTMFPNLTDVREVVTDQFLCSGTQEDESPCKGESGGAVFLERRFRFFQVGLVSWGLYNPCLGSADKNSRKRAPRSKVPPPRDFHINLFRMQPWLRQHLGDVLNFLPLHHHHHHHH
Description: (§1) Surface plasmon resonance (SPR, Biacore) was used for all binding affinity analyses. In brief, goat anti-human IgG was directly immobilised onto the carboxymethyl dextran surface of CM5 sensorchips to approximately 12,000 RU using standard NHS/EDC chemistry at pH 5. The immobilised antibody surface was pre-conditioned with ten injections of polyclonal human IgG (Privigen 60 s) prepared at 1 μg/mL. Ligands (anti-C2 mAbs) were captured at the beginning of each cycle as described below. An adjacent spot or flow cell in which only Polyclonal IgG was capture was used as a reference surface. The goat anti-human IgG Fc antibody surface was regenerate in 100 mM H3PO4, injected for 45 seconds at the end of each cycle. Experiments were performed at 37° C. and the flow rate of each experiment was kept constant at 30 μL/min.
(§2) Sensogram data was double-referenced against a reference anti-IgG surface (i.e. minus anti-C2 mAb) and blank buffer injections obtained within each experiment. The binding data was fit to 1:1 (kinetic or steady-state) model using local Rmax and null refraction index (RI=0) when appropriate. Buffers and solutions were filtered (0.22 μm) prior to use.

[2] = target: T2, human C2 T442A (human, UniProt P06681 21-752)
T2 sequence: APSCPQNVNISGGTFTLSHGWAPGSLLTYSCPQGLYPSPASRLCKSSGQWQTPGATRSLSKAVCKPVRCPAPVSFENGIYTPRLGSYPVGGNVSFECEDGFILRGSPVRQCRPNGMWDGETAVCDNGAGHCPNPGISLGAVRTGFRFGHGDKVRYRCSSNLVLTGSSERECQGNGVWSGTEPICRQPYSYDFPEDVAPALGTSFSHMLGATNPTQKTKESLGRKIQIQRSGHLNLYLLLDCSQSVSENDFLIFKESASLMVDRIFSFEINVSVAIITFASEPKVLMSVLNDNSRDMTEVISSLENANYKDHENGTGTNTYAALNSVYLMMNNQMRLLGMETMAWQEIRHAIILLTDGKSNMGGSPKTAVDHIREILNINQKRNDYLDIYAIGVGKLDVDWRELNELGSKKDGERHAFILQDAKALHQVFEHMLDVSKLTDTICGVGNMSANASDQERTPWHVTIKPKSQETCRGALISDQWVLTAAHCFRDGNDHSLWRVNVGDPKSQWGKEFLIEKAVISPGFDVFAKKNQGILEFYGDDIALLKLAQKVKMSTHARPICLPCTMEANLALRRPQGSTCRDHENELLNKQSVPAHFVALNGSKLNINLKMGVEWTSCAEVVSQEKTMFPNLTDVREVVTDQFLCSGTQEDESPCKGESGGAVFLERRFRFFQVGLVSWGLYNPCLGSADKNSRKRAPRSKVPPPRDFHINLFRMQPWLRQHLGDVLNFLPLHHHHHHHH
Description: as §1, §2

[3] = target: T3, human C2 V455A (human, UniProt P06681 21-752)
T3 sequence: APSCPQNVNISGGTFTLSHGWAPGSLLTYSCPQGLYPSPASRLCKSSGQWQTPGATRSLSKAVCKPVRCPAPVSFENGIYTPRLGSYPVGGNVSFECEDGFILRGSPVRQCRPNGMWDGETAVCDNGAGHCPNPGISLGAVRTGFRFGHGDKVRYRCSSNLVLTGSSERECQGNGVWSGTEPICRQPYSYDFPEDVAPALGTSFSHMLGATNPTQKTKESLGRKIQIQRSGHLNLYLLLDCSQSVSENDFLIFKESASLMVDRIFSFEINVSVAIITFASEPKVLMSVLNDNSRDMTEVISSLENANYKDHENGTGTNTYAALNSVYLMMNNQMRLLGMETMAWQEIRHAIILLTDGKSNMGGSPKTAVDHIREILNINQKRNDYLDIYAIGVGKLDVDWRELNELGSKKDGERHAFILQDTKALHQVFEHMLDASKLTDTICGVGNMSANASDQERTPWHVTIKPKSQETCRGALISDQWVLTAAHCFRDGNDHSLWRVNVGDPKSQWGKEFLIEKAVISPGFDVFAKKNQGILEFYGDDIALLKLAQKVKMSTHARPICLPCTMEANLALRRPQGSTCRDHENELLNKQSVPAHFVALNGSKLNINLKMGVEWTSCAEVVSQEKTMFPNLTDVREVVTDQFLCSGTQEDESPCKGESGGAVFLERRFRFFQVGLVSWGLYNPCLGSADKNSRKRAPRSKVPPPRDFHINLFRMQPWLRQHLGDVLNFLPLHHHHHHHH
Description: as §1, §2

[4] = target: T4, human C2 E532A (human, UniProt P06681 21-752)
T4 sequence: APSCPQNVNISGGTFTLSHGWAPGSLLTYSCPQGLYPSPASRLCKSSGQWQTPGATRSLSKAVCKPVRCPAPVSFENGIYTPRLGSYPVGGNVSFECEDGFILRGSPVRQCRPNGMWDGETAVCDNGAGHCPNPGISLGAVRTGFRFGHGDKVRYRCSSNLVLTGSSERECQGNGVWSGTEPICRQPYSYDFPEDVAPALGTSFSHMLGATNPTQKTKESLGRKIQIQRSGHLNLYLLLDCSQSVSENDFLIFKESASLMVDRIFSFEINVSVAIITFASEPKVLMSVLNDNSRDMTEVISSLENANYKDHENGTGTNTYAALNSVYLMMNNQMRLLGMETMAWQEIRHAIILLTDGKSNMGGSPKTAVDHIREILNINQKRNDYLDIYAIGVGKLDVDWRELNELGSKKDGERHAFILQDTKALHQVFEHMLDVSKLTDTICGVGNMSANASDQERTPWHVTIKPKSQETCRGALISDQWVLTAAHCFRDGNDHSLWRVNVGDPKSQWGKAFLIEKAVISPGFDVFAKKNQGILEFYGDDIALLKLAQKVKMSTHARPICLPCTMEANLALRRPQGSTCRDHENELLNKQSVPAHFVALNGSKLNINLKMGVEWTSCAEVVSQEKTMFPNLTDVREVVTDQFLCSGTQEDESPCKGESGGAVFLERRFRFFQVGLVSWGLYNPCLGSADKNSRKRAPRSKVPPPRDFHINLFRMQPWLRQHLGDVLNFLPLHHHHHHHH
Description: as §1, §2

B1: RF16-226 (antibody, human IgG4 S228P, lambda)
heavy: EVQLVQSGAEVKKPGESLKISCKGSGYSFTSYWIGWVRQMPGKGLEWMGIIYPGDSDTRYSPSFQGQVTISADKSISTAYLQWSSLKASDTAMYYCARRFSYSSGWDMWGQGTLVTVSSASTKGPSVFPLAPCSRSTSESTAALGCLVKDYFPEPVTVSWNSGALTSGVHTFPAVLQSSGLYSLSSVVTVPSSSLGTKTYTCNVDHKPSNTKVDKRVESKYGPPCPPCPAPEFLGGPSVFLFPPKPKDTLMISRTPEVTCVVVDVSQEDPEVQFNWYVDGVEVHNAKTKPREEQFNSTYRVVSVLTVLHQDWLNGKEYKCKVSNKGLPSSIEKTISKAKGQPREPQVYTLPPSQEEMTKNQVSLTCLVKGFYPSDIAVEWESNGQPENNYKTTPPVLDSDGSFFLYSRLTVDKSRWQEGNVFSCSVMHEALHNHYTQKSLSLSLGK
light: SYELTQPPSVSVSPGQTARITCSGDALTSKYVAWYQQKSGLAPLLVIYEDTRRPSGIPAKFSGSSSGSVATLTISGAHGDDEADYYCYSTDASGHQRVFGGGTKLTVLSQPKAAPSVTLFPPSSEELQANKATLVCLISDFYPGAVTVAWKADGSPVKAGVETTKPSKQSNNKYAASSYLSLTPEQWKSHRSYSCQVTHEGSTVEKTVAPTECS
notes: pH-dependent anti-C2 antibody from a phage display library; also called WT
Fold diff [1]: 1 fold | Fold diff [2]: 2 fold | Fold diff [3]: 1 fold | Fold diff [4]: 2 fold
